The text below walks through data of publication PMC10185811.

The target of assay [1] is His6-RPN1 WT (human) (UniProt Q13200). Description: BLI; Octet; His6-RPN1 loaded on the nickel sensor; NUB1L, GST-FAT10, NUB1L with GST-FAT10 or NUB1L with GST in solution; Octet buffer (PBS, 0.1% Triton X-100, 1x ROTIBlock); 1:1 binding model. For orientation: In BLI a coated tip is dipped into the sample, and binding shifts an interference pattern.
The target in assay [2] is GST-RAD23 (UniProt P54727). Description: Octet (BLI). The following applies: GST-RAD23 on the sensor; GST control curve in the same panel reaches est. 0.21 nm (above the T1 curve); read off a plot.
GST-RAD23, sequence (P54727 whole entry): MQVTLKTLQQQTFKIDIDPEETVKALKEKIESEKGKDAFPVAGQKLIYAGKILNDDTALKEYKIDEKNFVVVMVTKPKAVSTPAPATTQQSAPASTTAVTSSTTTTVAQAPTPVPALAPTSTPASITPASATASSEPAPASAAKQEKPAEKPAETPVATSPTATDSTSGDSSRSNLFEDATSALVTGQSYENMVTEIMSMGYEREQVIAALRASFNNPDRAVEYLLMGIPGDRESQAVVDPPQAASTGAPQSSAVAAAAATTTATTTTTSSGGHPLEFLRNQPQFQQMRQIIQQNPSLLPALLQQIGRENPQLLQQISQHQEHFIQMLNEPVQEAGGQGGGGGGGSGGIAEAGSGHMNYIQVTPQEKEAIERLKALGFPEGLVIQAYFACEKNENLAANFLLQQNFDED
The target in assay [3] is GST-NUB1L, Q9Y5A7-1. Description: Octet (BLI). The conditions noted are these: GST-NUB1L on the sensor; His6-RPN1 variant in solution; parent: est. 0.58; read off a plot.
GST-NUB1L, Q9Y5A7-1, sequence (Q9Y5A7 whole entry): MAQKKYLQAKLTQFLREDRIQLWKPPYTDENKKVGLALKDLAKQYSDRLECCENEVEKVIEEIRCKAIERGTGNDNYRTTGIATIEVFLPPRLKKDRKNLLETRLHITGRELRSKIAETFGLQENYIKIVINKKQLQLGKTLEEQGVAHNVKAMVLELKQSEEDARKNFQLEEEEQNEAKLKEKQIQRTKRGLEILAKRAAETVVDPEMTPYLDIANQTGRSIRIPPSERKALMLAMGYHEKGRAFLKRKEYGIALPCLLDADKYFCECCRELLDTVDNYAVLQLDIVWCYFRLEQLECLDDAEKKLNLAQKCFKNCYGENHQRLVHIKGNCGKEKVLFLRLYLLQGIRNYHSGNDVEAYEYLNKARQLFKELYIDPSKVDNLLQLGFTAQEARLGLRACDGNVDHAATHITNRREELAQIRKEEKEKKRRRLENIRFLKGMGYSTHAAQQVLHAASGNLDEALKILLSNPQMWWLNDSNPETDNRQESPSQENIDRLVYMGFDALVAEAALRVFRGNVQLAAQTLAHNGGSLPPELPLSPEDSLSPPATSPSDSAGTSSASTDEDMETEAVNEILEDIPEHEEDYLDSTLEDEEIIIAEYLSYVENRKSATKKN

His6-RPN1 WT, sequence (Q13200 whole entry, change not shown): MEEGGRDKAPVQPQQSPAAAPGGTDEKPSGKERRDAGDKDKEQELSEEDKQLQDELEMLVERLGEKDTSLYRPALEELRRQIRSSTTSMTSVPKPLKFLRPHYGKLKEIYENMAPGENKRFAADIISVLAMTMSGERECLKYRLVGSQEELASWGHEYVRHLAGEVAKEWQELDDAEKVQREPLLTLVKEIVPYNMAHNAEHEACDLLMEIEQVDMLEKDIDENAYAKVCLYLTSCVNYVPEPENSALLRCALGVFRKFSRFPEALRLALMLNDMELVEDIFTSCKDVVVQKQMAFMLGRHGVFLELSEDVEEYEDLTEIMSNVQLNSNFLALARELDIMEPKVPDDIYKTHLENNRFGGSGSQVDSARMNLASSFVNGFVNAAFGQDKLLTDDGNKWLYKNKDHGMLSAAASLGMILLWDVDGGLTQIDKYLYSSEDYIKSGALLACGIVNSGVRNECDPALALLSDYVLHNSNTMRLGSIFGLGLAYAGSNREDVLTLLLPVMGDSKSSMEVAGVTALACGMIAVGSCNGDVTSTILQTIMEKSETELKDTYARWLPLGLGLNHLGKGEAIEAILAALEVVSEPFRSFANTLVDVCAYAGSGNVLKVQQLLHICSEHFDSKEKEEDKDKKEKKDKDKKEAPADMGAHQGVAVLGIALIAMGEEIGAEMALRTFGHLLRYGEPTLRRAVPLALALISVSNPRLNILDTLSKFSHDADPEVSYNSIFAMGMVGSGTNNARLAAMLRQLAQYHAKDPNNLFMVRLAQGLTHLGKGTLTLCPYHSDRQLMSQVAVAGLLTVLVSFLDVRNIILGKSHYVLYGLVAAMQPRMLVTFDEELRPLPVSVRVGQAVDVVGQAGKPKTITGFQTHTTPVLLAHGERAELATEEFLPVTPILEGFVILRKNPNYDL
NUB1L-bound GST-FAT10 (NUB1L co-incubated with GST-FAT10), sequence (Q9Y5A7 whole entry): as the sequence (Q9Y5A7 whole entry) above
NUB1L-bound GST-FAT10 (NUB1L co-incubated with GST-FAT10), sequence (O15205 whole entry): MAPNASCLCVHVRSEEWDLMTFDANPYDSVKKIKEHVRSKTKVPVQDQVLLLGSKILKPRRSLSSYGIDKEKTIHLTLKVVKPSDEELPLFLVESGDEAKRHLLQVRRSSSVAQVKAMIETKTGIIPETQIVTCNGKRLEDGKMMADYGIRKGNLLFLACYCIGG

Turning to “NUB1L-bound GST-FAT10 (NUB1L co-incubated with GST-FAT10) (from UniProt Q9Y5A7-1 1-615; O15205 1-165) (complex)”, the fold increase of the affinity for RPN1 against NUB1L alone in assay [1] is 4 fold.
With His6-RPN1 WT (from UniProt Q13200) T1, the figures for the response in assay [2] and in assay [3] were 0.19 nm and 0.37 nm, respectively.
